# From paper PMC12985673, “Weaker neuroligin 2–neurexin β1 interaction tethers membranes and recruits gephyrin at membrane junctions through clustering” (Science Advances, 2026)
# B1: full-length neuroligin 2 (NL2), mouse, without the splice insert at site A (receptor, UniProt Q69ZK9 15-836, looked up)
# chain: QRGGGGPGGGAPGGPGLGLGSLGEERFPVVNTAYGRVRGVRRELNNEILGPVVQFLGVPYATPPLGARRFQPPEAPASWPGVRNATTLPPACPQNLHGALPAIMLPVWFTDNLEAAATYVQNQSEDCLYLNLYVPTEDDIRDSGKKPVMLFLHGGSYMEGTGNMFDGSVLAAYGNVIVVTLNYRLGVLGFLSTGDQAAKGNYGLLDQIQALRWLSENIAHFGGDPERITIFGSGAGASCVNLLILSHHSEGLFQKAIAQSGTAISSWSVNYQPLKYTRLLAAKVGCDREDSTEAVECLRRKSSRELVDQDVQPARYHIAFGPVVDGDVVPDDPEILMQQGEFLNYDMLIGVNQGEGLKFVEDSAESEDGVSASAFDFTVSNFVDNLYGYPEGKDVLRETIKFMYTDWADRDNGEMRRKTLLALFTDHQWVAPAVATAKLHADYQSPVYFYTFYHHCQAEGRPEWADAAHGDELPYVFGVPMVGATDLFPCNFSKNDVMLSAVVMTYWTNFAKTGDPNQPVPQDTKFIHTKPNRFEEVVWSKFNSKEKQYLHIGLKPRVRDNYRANKVAFWLELVPHLHNLHTELFTTTTRLPPYATRWPPRTPGPGTSGTRRPPPPATLPPESDIDLGPRAYDRFPGDSRDYSTELSVTVAVGASLLFLNILAFAALYYKRDRRQELRCRRLSPPGGSGSGVPGGGPLLPTAGRELPPEEELVSLQLKRGGGVGADPAEALRPACPPDYTLALRRAPDDVPLLAPGALTLLPSGLGPPPPPPPPSLHPFGPFPPPPPTATSHNNTLPHPHSTTRV
# modifications: N-glycans
# notes: Neuroligin 2, mouse, amplified from pNICE-NL2(−); lacks the splice insert at site A (missing G153-T169 in UniProt Q69ZK9); its own signal peptide was replaced with that of NL1 followed by an HA tag; PreScission site before the C-terminal EGFP; S1A; also called NL2 WT; wild-type NL2; source: HEK293T, BacMam virus, purified (GFP-nanobody resin, eluted by PPX digestion, SEC); not shown: EGFP, …
# Biological target: the molecule itself
# Assay: cryo-EM structure; full-length NL2 alone; 20 mM Hepes-Na pH 7.5, 150 mM NaCl, 1 mM MgCl2, 0.5 mM CaCl2, 0.06% digitonin, brain polar lipid extract; only the ECD resolved
protein,measurement,value
B1,stoichiometry N,2
